# Laboratory results as given in PMC12320502.
# Target: HSPA5 tagged with Myc (pcDNA3.1) (UniProt P11021)
# Assay: Co-IP (IP: Flag, immunoblot: Myc), band intensity number under the Myc blot
# Details: parent: 1.0
# Chain of UniProt P11021 (P11021 19-654): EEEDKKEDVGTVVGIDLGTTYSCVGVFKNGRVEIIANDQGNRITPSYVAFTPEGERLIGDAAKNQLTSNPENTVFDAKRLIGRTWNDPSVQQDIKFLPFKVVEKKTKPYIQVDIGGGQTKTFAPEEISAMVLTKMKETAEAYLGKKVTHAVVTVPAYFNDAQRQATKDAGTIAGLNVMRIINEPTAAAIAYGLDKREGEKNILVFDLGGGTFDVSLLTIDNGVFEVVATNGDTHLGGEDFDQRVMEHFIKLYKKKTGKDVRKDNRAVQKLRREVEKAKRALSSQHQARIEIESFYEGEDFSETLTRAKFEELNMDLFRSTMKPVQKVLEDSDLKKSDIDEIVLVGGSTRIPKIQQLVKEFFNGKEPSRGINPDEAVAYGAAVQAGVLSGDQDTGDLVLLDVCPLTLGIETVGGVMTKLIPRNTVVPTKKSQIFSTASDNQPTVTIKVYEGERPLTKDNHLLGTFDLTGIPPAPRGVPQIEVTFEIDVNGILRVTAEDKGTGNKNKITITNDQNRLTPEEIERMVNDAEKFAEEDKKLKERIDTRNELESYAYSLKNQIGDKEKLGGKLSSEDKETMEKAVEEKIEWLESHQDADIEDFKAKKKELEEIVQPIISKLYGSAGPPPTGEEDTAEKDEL
row,Substance,ratio to parent
1,SBSPON tagged with 3×Flag (pcDNA3.1-3×Flag-SBSPON) (from UniProt Q8IVN8) GLU123Vla,0.9
2,SBSPON tagged with 3×Flag (pcDNA3.1-3×Flag-SBSPON) (from UniProt Q8IVN8) HIS134Vla,0.8

# Continued, values first:
row,ratio to parent,Substance
1,0.7,SBSPON tagged with 3×Flag (pcDNA3.1-3×Flag-SBSPON) (from UniProt Q8IVN8) ASP88Vla
2,0.8,SBSPON tagged with 3×Flag (pcDNA3.1-3×Flag-SBSPON) (from UniProt Q8IVN8) ASP88Vla; LYS91Vla; GLU123Vla; HIS134Vla
3,0.9,SBSPON tagged with 3×Flag (pcDNA3.1-3×Flag-SBSPON) (from UniProt Q8IVN8) LYS91Vla
